Bridge positions count the residues as written; N and C are the ends. Ends that are not written are not given here.
Tests used:
[1] = molecular target: human collagen type I (acid soluble, extracted from placenta, Sigma C7774) (human) (UniProt P02452); assay: dried collagen assay
[2] = molecular target: human collagen type I (acid soluble, extracted from placenta, Sigma C7774) (human) (UniProt P02452); assay: dried collagen assay, 5 uM each
[3] = molecular target: rat collagen (acid soluble, type I, rat tail, Upstate 08-115) (rat) (UniProt P02454); assay: dried collagen assay, 5 uM each
Chain of rat collagen (acid soluble, type I, rat tail, Upstate 08-115) (rat) (P02454 152-1207, chain 1 of 2): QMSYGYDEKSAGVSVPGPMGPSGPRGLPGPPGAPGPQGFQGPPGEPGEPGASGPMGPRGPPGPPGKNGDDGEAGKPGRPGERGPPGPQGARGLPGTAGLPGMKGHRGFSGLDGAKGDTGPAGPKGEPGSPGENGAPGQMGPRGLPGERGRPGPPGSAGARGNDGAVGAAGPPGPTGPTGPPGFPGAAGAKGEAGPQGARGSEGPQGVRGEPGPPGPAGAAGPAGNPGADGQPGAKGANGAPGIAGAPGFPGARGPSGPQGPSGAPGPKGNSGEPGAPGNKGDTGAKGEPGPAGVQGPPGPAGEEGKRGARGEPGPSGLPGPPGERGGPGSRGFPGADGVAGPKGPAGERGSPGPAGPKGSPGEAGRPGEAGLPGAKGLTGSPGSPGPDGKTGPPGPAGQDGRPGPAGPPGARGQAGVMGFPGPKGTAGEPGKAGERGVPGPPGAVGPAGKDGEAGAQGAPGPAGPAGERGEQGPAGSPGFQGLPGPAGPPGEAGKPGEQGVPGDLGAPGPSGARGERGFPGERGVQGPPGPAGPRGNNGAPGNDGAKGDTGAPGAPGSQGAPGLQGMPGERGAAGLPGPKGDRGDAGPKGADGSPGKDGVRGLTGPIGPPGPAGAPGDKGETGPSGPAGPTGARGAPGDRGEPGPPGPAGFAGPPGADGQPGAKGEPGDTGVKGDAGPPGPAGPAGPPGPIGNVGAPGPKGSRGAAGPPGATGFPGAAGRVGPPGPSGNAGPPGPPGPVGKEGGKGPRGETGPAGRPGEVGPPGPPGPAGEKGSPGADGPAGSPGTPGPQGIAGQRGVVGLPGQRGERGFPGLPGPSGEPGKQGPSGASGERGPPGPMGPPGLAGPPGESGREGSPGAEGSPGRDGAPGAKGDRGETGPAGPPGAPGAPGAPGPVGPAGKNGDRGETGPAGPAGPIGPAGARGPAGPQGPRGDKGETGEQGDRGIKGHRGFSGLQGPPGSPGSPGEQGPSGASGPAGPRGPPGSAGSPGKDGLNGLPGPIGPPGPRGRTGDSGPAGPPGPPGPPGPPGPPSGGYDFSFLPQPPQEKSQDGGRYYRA
Chain of rat collagen (acid soluble, type I, rat tail, Upstate 08-115) (rat) (P02466 86-1125, chain 2 of 2, further chain): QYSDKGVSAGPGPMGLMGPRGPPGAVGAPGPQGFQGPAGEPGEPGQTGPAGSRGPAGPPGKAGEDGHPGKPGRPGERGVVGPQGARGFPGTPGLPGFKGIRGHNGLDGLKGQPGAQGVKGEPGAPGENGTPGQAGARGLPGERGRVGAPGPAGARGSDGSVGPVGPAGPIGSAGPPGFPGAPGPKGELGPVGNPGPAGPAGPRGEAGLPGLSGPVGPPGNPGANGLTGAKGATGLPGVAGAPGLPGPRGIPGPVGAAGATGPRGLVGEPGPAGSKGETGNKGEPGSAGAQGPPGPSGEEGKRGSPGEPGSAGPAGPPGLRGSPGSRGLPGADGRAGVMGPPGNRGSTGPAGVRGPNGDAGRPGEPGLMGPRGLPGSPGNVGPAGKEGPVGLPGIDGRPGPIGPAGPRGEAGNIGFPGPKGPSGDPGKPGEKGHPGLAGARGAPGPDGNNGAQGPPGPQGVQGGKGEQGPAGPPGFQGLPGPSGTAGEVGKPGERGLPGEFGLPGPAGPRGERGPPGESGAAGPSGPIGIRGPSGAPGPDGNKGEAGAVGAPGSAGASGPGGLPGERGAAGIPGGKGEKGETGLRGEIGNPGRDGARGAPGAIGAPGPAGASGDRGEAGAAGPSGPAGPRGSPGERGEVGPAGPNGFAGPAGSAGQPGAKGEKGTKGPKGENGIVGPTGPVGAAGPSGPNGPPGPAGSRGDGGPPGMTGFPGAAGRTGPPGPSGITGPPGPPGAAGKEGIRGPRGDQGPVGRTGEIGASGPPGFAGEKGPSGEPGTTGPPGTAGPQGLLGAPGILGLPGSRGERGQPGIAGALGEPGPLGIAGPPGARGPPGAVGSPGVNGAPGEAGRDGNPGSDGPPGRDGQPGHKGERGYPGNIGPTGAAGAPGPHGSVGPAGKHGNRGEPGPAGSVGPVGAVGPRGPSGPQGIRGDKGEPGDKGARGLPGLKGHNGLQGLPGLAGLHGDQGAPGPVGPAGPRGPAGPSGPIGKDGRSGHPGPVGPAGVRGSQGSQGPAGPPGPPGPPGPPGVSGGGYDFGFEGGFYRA

Chain of human collagen type I (acid soluble, extracted from placenta, Sigma C7774) (human) (P02452 162-1218 limits assumed, chain 1 of 2): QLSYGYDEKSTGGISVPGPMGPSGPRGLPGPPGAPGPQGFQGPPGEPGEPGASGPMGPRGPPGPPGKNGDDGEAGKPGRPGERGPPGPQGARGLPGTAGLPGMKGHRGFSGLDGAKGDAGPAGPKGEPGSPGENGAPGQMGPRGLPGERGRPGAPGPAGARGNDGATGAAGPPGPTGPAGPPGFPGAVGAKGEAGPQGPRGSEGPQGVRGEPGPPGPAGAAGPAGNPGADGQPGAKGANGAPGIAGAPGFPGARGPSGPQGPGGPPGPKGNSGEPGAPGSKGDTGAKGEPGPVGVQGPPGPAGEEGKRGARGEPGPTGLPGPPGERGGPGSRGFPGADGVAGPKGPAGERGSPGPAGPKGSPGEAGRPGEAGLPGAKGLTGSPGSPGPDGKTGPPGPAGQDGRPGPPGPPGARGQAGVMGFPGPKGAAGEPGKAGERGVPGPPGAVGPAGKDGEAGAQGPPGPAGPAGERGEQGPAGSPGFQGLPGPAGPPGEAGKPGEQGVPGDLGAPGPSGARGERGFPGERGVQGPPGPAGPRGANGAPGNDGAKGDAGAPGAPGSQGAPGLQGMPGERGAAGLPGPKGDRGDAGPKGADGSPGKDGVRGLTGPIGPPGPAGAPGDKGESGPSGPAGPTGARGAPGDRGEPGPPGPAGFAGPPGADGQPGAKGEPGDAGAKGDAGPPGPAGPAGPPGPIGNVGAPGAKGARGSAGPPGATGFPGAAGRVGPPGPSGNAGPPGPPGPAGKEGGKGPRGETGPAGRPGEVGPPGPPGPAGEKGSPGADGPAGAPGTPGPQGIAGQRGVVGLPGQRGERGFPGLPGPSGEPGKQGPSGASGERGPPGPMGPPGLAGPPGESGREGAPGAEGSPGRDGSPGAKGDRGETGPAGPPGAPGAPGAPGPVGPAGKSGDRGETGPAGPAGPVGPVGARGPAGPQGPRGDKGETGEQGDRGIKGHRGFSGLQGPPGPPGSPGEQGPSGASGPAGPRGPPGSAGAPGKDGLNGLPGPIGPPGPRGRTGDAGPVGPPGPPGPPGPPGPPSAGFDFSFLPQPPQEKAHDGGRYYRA
Chain of human collagen type I (acid soluble, extracted from placenta, Sigma C7774) (human) (P08123 80-1119 limits assumed, chain 2 of 2, further chain): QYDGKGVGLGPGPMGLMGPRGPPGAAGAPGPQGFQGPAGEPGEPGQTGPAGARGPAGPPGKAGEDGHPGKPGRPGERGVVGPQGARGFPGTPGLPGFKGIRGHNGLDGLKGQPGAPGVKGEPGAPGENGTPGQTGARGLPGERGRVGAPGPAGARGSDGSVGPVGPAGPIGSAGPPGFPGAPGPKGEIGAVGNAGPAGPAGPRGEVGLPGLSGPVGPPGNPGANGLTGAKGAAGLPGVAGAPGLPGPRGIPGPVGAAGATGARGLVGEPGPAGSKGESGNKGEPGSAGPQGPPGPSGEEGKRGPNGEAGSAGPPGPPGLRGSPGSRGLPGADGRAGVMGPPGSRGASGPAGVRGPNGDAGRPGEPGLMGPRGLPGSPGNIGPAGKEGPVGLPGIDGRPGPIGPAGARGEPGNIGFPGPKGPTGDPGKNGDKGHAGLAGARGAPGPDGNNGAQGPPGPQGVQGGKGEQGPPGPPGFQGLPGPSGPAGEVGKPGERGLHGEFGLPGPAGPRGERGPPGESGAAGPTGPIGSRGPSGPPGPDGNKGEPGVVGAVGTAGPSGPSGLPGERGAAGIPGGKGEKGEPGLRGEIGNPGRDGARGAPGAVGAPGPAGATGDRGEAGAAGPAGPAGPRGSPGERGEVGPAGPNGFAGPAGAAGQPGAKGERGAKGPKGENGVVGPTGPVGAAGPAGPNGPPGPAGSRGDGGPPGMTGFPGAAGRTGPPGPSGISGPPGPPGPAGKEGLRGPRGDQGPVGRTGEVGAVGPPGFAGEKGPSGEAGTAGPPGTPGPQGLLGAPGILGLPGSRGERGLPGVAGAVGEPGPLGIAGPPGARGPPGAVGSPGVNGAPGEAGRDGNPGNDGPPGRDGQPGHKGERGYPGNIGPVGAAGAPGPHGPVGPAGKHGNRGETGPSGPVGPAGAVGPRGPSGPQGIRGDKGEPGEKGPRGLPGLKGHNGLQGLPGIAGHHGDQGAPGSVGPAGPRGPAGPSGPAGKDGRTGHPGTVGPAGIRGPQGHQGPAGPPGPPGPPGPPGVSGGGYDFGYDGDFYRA

| Binder | Dried Human Collagen Binding [1] [%] | Human binding [2] [%] | Rat binding [3] [%] | other results |
| --- | --- | --- | --- | --- |
| YWVCGGDHQSWHCSHP (disulfide 4-13; also: C-terminus probably amidated (Rink amide resin)) [SEQ ID NO: 35] | 8 |  |  |  |
| AKKCWYNDGGHLRCRTL (disulfide 4-14; not fully specified (C-terminus)) [SEQ ID NO: 99] | 3 |  |  |  |
| KKGWHCYTYFPHHYCTYG [Compound ID 1015] |  | 29 | 30 |  |
| GWQCFGASDWHCTWV (disulfide 4-12; not fully specified) [SEQ ID NO: 8] | 9 |  |  |  |
| KKLWHCYTYFPHHYCVYG [Compound ID 1017] |  | 25 | 18 |  |
| VWACRGGTTNWHCDL (disulfide 4-13; also: C-terminus probably amidated (Rink amide resin)) [SEQ ID NO: 41] | 1 |  |  |  |
| YHACYQAGCYIY (disulfide 4-9; not fully specified (C-terminus)) [SEQ ID NO: 108] |  |  |  | % Collagen Binding [1]: 5% |
| TWQCSGNQKWSCEWF (disulfide 4-12; also: C-terminus probably amidated (Rink amide resin)) [SEQ ID NO: 6] | 20 |  |  |  |
| SWSCGGDHNAWKCQYS (disulfide 4-13; also: C-terminus probably amidated (Rink amide resin)) [SEQ ID NO: 36] | 7 |  |  |  |
| NWKCWGVVKWECIWA (disulfide 4-12; also: C-terminus presumably amidated (Rink amide resin)) [SEQ ID NO: 5] | 24 |  |  |  |

The next lines start with results.

| Dried Human Collagen Binding [1] [%] | Human binding [2] [%] | Rat binding [3] [%] | Binder | other results |
| --- | --- | --- | --- | --- |
| 6 |  |  | GWSCHGDAADWPCQWS (disulfide 4-13; also: C-terminus probably amidated (Rink amide resin)) [SEQ ID NO: 38] |  |
|  | 72 | 61 | KKWHCYTYFPHHYCVYG (disulfide 5-14 (inferred); also: coupled to ITC-Gd3 (tris-Gd-DOTAGA isothiocyanate), site not given here) [Compound ID NO. 1014] |  |
|  | 48 | 50 | KKAWHCYTYFPHHYCVYG [Compound ID 1016] |  |
| 6 |  |  | GWQCSGDASVWNCDWI (disulfide 4-13; also: C-terminus probably amidated (Rink amide resin)) [SEQ ID NO: 39] |  |
| 7 |  |  | TWNCYGVTEWHCYMI (disulfide 4-12; not fully specified (C-terminus)) [SEQ ID NO: 9] |  |
|  | 53 | 55 | KKYWHCYTYFPHHYCVYG [Compound ID 1018] |  |
| 7 |  |  | LWNCHGTDANWKCVLN (disulfide 4-13; also: C-terminus probably amidated (Rink amide resin)) [SEQ ID NO: 37] |  |
|  | 81 | 88 | GKWHCYTKFPHHYCKYY [Compound ID 1013] |  |

Reference: patent US20080058636A1, “METHODS OF MYOCARDIAL IMAGING” (Epix Pharmaceuticals, Inc., priority 2005, published 2008)
